Laboratory results as given in the supplement of paper PMC7877785.
± gives the uncertainty stated by the source.

Experiment: self-splicing fitness, log relative to wild type (ln ratio); higher = more splicing; Tetrahymena group I intron in knt gene, E. coli kanamycin selection, DiMSum; sequences stand for … in CUCUCU…GGAGGGAAAAGUUAUCAGGCAUGCACCUGGUAGCUAGUCUUUAAACCAAUAGAUUGCAUCGGUUUAAAAGGCAAGACCGUCAAAUUGCGGGAAAGGGGUCAACAGCCGUUCAGUACCAAGUCUCAGGGGAAACUUUGAGAUGGCCUUGCAAAGGGUAUGGUAAUAAGCUGACGGACAUGGUCCUAACCACGCAGCCAAGUCCUAAGUCAACAGAUCUUCUGUUGAUAUGGAUGCAGUUCACAGACUAAAUGUCGGUCGGGGAAGAUGUAUUCUUCUCAUAAGAUAUAGUCGGACCUCUCCUUAAUGGGAGCUAGCGGAUGAAGUGAUGCAACACUGGAGCCGCUGGGAACUAAUUUGUAUGCGAAAGUAUAUUGAUUAGUUUUGGAGUACUCGUGGUCG
Summary of the method: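 Fitness was computed with DiMSum as the error-weighted combination of replicate fold changes, kanamycin versus none, each normalised to wild type. The library randomised all eight intron nucleotides of the P1ex region, with the intron placed in the knt kanamycin-resistance gene on pET-22b(+) in E. coli BL21(DE3). Six replicate transformations were grown overnight at 37°C or 30°C on LB agar with or without 25 μg/mL kanamycin, plus 100 μg/mL carbenicillin, 50 μM IPTG and 0.2% rhamnose. Pooled colonies were amplicon-sequenced on an Illumina HiSeq 2500.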

Row | Sequence | self-splicing fitness (ln) (30 °C) | self-splicing fitness (ln) (37 °C)
1 | GCGCAGCAAUAUUACGAGGA | -1.89 ± 0.3 | -0.618 ± 0.16
2 | CAGUAGCAAUAUUACGUCUU | -1.17 ± 0.067 | 0.135 ± 0.076
3 | AGGAAGCAAUAUUACGCGUC | -3.99 ± 0.33 | -2.24 ± 0.24
4 | GCCAAGCAAUAUUACGUAUC | -1.66 ± 0.066 | -0.646 ± 0.082
5 | UCCAAGCAAUAUUACGUAGG | -0.867 ± 0.06 | -0.159 ± 0.094
6 | CAGCAGCAAUAUUACGGGCA | -2.11 ± 0.095 | -1.07 ± 0.099
7 | UAUCAGCAAUAUUACGAUAG | -0.799 ± 0.11 | 0.204 ± 0.15
8 | CGAGAGCAAUAUUACGAUUG | – | -2.09 ± 0.34
9 | CCGCAGCAAUAUUACGACCU | -3.36 ± 0.23 | -2.63 ± 0.29
10 | ACCGAGCAAUAUUACGCGCC | -3.19 ± 0.25 | -3.32 ± 0.43
11 | AUUAAGCAAUAUUACGUUGC | -3.29 ± 0.23 | -3.01 ± 0.37
12 | UAUUAGCAAUAUUACGUAUA | -1.6 ± 0.18 | -2.03 ± 0.21
13 | GAGGAGCAAUAUUACGGUGG | -2.76 ± 0.2 | –
14 | GAGCAGCAAUAUUACGCUAC | – | -1.95 ± 0.33
15 | GCAGAGCAAUAUUACGGUUG | -3.01 ± 0.34 | -2.87 ± 0.47
16 | GCGUAGCAAUAUUACGAUUC | -0.141 ± 0.098 | -0.0224 ± 0.11
17 | ACAGAGCAAUAUUACGAUGG | -3.24 ± 0.14 | -3.32 ± 0.23
18 | UCCGAGCAAUAUUACGUUUA | -2.86 ± 0.48 | -1.71 ± 0.23
19 | GUCUAGCAAUAUUACGGUCA | -0.592 ± 0.11 | -0.44 ± 0.12
20 | CUUUAGCAAUAUUACGGAAC | – | -1.93 ± 0.48
21 | GCGUAGCAAUAUUACGUCUU | -3.15 ± 0.098 | -1.93 ± 0.1
22 | UUUAAGCAAUAUUACGAGUG | -1.38 ± 0.14 | -0.204 ± 0.13
23 | CAUAAGCAAUAUUACGGUGC | -3.51 ± 0.18 | -3.18 ± 0.24
24 | AUCUAGCAAUAUUACGGUUG | -2.66 ± 0.15 | -2.45 ± 0.19
25 | CAACAGCAAUAUUACGGCAA | -1.45 ± 0.13 | -1.28 ± 0.12

Row | Sequence | self-splicing fitness (ln) (30 °C) | self-splicing fitness (ln) (37 °C)
26 | CCAGAGCAAUAUUACGCGUG | -0.704 ± 0.069 | -0.93 ± 0.095
27 | UCUGAGCAAUAUUACGACGU | -0.648 ± 0.13 | 0.778 ± 0.13
28 | CAAUAGCAAUAUUACGAGUU | -3.64 ± 0.2 | -2.19 ± 0.2
29 | GCUCAGCAAUAUUACGCUAC | -3.26 ± 0.17 | -2.69 ± 0.2
30 | GCAAAGCAAUAUUACGAAGU | -3.24 ± 0.16 | -1.22 ± 0.11
31 | ACUGAGCAAUAUUACGGUCU | -2.46 ± 0.12 | -1.57 ± 0.16
32 | ACCAAGCAAUAUUACGGGUU | -4.06 ± 0.14 | -3.14 ± 0.17
33 | UAGGAGCAAUAUUACGAUGA | -2.75 ± 0.26 | -1.53 ± 0.21
34 | CUGCAGCAAUAUUACGGUGU | -4.57 ± 0.36 | -2.37 ± 0.24
35 | GCUAAGCAAUAUUACGAGCG | -1.7 ± 0.11 | -0.246 ± 0.12
36 | CAUGAGCAAUAUUACGAGAU | -4.03 ± 0.23 | -1.82 ± 0.28
37 | GUACAGCAAUAUUACGUAGG | -2.79 ± 0.15 | -0.471 ± 0.12
38 | AGUCAGCAAUAUUACGAAAG | -3.43 ± 0.23 | -1.45 ± 0.2
39 | GGUGAGCAAUAUUACGGGUC | -1.98 ± 0.11 | -2.4 ± 0.15
40 | AAUUAGCAAUAUUACGUGCU | -2.18 ± 0.12 | -1.33 ± 0.11
41 | UCCGAGCAAUAUUACGCGUU | -3.39 ± 0.12 | -1.95 ± 0.13
42 | UGACAGCAAUAUUACGGAGC | -4.35 ± 0.39 | -2.91 ± 0.19
43 | CCACAGCAAUAUUACGCAAU | -3.41 ± 0.2 | -2.66 ± 0.25
44 | CCAUAGCAAUAUUACGCUUC | – | -2.24 ± 0.49
45 | GCCCAGCAAUAUUACGAGGA | -0.441 ± 0.075 | -0.147 ± 0.086
46 | AAGCAGCAAUAUUACGUAAA | -1.84 ± 0.087 | -0.803 ± 0.11
47 | UCCAAGCAAUAUUACGAUAG | -2.81 ± 0.13 | -2.98 ± 0.21
48 | CUCCAGCAAUAUUACGCCCG | -2.56 ± 0.17 | -0.904 ± 0.19
49 | GUAUAGCAAUAUUACGCAAC | -2.53 ± 0.37 | –
50 | GAUCAGCAAUAUUACGAAUU | -1.21 ± 0.065 | -0.655 ± 0.083

Row | Sequence | self-splicing fitness (ln) (30 °C) | self-splicing fitness (ln) (37 °C)
51 | CUCAAGCAAUAUUACGUUUC | -4.05 ± 0.24 | -3.83 ± 0.37
52 | UGCCAGCAAUAUUACGCUAU | -0.882 ± 0.16 | -1.13 ± 0.16
53 | AAGGAGCAAUAUUACGGUGG | -3.21 ± 0.15 | -2.45 ± 0.27
54 | GGUGAGCAAUAUUACGGAAU | -2.53 ± 0.39 | 0.428 ± 0.28
55 | CUGAAGCAAUAUUACGGUCU | -4.07 ± 0.36 | -2.24 ± 0.27
56 | GGAUAGCAAUAUUACGUUAU | -4.06 ± 0.24 | -3.28 ± 0.23
57 | GAGUAGCAAUAUUACGUGAG | -2.5 ± 0.081 | -1.28 ± 0.12
58 | CAGAAGCAAUAUUACGGUUU | -2.93 ± 0.093 | -2.83 ± 0.12
59 | GUUCAGCAAUAUUACGCAGC | -3.43 ± 0.29 | -1.1 ± 0.2
60 | GCGUAGCAAUAUUACGGUCA | -0.597 ± 0.081 | -0.142 ± 0.083
61 | CACUAGCAAUAUUACGAGGG | -3.29 ± 0.18 | -1.34 ± 0.15
62 | UUGUAGCAAUAUUACGUGUU | -2.7 ± 0.25 | -2.5 ± 0.24
63 | CGAAAGCAAUAUUACGACCU | -0.917 ± 0.079 | -0.386 ± 0.11
64 | CGGUAGCAAUAUUACGGGGC | – | -2.39 ± 0.34
65 | UCAAAGCAAUAUUACGAAAU | -2.52 ± 0.2 | -2.53 ± 0.27
66 | ACACAGCAAUAUUACGGACU | -0.884 ± 0.054 | 0.0735 ± 0.063
67 | GUGAAGCAAUAUUACGUUAC | -2.88 ± 0.11 | -1.52 ± 0.13
68 | ACUAAGCAAUAUUACGCUAA | -3.83 ± 0.43 | -1.92 ± 0.38
69 | CUAAAGCAAUAUUACGAUCA | -2.12 ± 0.18 | -0.711 ± 0.22
70 | AAGAAGCAAUAUUACGCACA | -0.267 ± 0.082 | -0.233 ± 0.097
71 | GGCUAGCAAUAUUACGAUUU | -0.855 ± 0.093 | 0.68 ± 0.12
72 | UUUGAGCAAUAUUACGUUGU | -2.68 ± 0.21 | -2.46 ± 0.28
73 | ACGGAGCAAUAUUACGAUCA | -2.77 ± 0.37 | -1.53 ± 0.24
74 | GGAGAGCAAUAUUACGACUG | – | -1.15 ± 0.27
75 | GAAAAGCAAUAUUACGGGUC | -2.09 ± 0.14 | -2.58 ± 0.22

Row | Sequence | self-splicing fitness (ln) (30 °C) | self-splicing fitness (ln) (37 °C)
76 | GUGAAGCAAUAUUACGAGAA | -1.97 ± 0.13 | -0.33 ± 0.13
77 | CUAGAGCAAUAUUACGAGGC | -3.08 ± 0.26 | -1.02 ± 0.23
78 | ACACAGCAAUAUUACGGAAU | -2.58 ± 0.084 | -2.31 ± 0.15
79 | CAGUAGCAAUAUUACGGUUA | -2.63 ± 0.14 | -2.69 ± 0.15
80 | UACCAGCAAUAUUACGUGGU | -3.86 ± 0.14 | -2.89 ± 0.16
81 | GGACAGCAAUAUUACGACAG | -3.31 ± 0.21 | -2.33 ± 0.27
82 | UAAAAGCAAUAUUACGGGCA | -0.521 ± 0.094 | 0.0848 ± 0.1
83 | UUAAAGCAAUAUUACGGGAA | -0.821 ± 0.088 | -0.351 ± 0.12
84 | CGAUAGCAAUAUUACGUAGG | -0.695 ± 0.056 | -0.444 ± 0.068
85 | GACGAGCAAUAUUACGAUGG | -3.7 ± 0.17 | -3 ± 0.2
86 | AUGCAGCAAUAUUACGGUGC | -3.79 ± 0.11 | -3.02 ± 0.13
87 | ACGAAGCAAUAUUACGCGAA | -2.07 ± 0.1 | -0.608 ± 0.097
88 | GGAAAGCAAUAUUACGUGUA | -1.92 ± 0.096 | -1.8 ± 0.13
89 | AGGGAGCAAUAUUACGUUGA | – | -2.8 ± 0.24
90 | UCAGAGCAAUAUUACGUAAU | -2.52 ± 0.25 | -1.66 ± 0.3
91 | GACAAGCAAUAUUACGACCA | -0.459 ± 0.12 | -0.806 ± 0.13
92 | UUUAAGCAAUAUUACGACGG | -0.639 ± 0.11 | 0.382 ± 0.13
93 | GCUUAGCAAUAUUACGGGGG | -1.53 ± 0.11 | -1.54 ± 0.15
94 | AAUCAGCAAUAUUACGAUCU | 0.0008 ± 0.059 | 0.914 ± 0.088
95 | GAGAAGCAAUAUUACGCAGA | -2.84 ± 0.17 | -1.8 ± 0.19
96 | ACCGAGCAAUAUUACGACGG | -2.24 ± 0.2 | -0.893 ± 0.21
97 | GGAAAGCAAUAUUACGCUCA | -0.428 ± 0.12 | -0.303 ± 0.17
98 | GGCCAGCAAUAUUACGUUGC | -1.58 ± 0.071 | -0.74 ± 0.081
